Values quoted from earlier work in paper PMC10419064.

Molecular target: Cardiac troponin I switch peptide (Homo sapiens) (UniProt P19429)

Q: With “Cardiac troponin C regulatory N-domain (from UniProt P63316)” as the substance, how does the Kd read?
A: < 50 µM
